Data published in patent CN115433278A.

T1: CS1 FC融合标签蛋白 (CS1 Fc fusion tag protein, expressed in 293F cells) (UniProt Q9NQ25)
T1 sequence (looked up): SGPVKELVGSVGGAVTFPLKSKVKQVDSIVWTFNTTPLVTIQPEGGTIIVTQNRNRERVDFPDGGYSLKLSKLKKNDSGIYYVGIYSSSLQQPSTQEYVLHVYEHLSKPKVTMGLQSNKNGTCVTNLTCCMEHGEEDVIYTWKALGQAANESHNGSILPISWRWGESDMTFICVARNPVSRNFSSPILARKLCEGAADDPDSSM


Assays:
[1] = target: T1, CS1 FC融合标签蛋白 (CS1 Fc fusion tag protein, expressed in 293F cells); test: ELISA, CS1 protein coated at 1 ug/ml, purified antibody at dilution 25K
[2] = target: T1, CS1 FC融合标签蛋白 (CS1 Fc fusion tag protein, expressed in 293F cells); test: ELISA, CS1 protein coated at 1 ug/ml, purified antibody at dilution 15625k
[3] = target: T1, CS1 FC融合标签蛋白 (CS1 Fc fusion tag protein, expressed in 293F cells); test: ELISA, CS1 protein coated at 1 ug/ml, purified antibody at dilution 3125k
[4] = target: T1, CS1 FC融合标签蛋白 (CS1 Fc fusion tag protein, expressed in 293F cells); test: ELISA, CS1 protein coated at 1 ug/ml, purified antibody at dilution 125K
[5] = target: T1, CS1 FC融合标签蛋白 (CS1 Fc fusion tag protein, expressed in 293F cells); test: ELISA, CS1 protein coated at 1 ug/ml, purified antibody at dilution 625K
[6] = target: T1, CS1 FC融合标签蛋白 (CS1 Fc fusion tag protein, expressed in 293F cells); test: indirect ELISA, CS1 protein coated at 1 ug/ml, B cell culture supernatant, goat anti-rabbit IgG-HRP
[7] = target: T1, CS1 FC融合标签蛋白 (CS1 Fc fusion tag protein, expressed in 293F cells); test: ELISA, CS1 protein coated at 1 ug/ml, purified antibody at dilution 5K
[8] = target: T1, CS1 FC融合标签蛋白 (CS1 Fc fusion tag protein, expressed in 293F cells); test: ELISA, CS1 protein coated at 1 ug/ml, purified antibody at dilution 1K

Binder	ELISA OD [1]	ELISA OD [2]	ELISA OD [3]	ELISA OD [4]	ELISA OD [5]	OD450值 [6]	ELISA OD [7]	ELISA OD [8]
命名为1D12的兔重组单克隆抗体 (rabbit recombinant monoclonal antibody 1D12) (antibody, V domains shown) VH: QSVEESGGRLVTPGTPLTLTCTVSGFSLSSYGMIWVRQAPGKGLEWIGSINTDGSTYYATWAKGRFTISRTSTTVDLKITSPTTEDTATYFCARGYPGYITDSYYYFNIWGPGTLVTVS VL: DVVLTQTPASVEAAVRGTVTIKCQASQSISSYLSWYQQKPGQPPKLLIYRASTLESGVPSRFKGSGSGTEFTLTITDLECADAATYYCQCTYGTFHSSGYGFGGGTGVVVK	3.45	0.124	0.209	2.02	0.522	2.13 OD450	–	–
命名为2B3的兔重组单克隆抗体 (rabbit recombinant monoclonal antibody 2B3) (antibody, V domains shown) VH: QSVEESGGRLVTPGTPLTLTCTVSGFSLSAYAMGWFRQAPGKGLEYIGIISDSASTFYATWAKGRFTISRTSSTMVDLKMTSPTTEDTATYFCARAYYVVDNDSPFNMWGPGTVVTVS VL: VMTQTPSSVSAAVGGTVTINCQASENIYSSLAWYQQKPGQPPKLLIYAASKLESGVPSRFKGSRSETDFTLTISDLECDDAATYYCQSYYDTGRASFAFGGGTEVVVK	2.91	0.108	0.161	0.98	0.276	2.03 OD450	3.95	–
命名为1H2的兔重组单克隆抗体 (rabbit recombinant monoclonal antibody 1H2) (antibody, V domains shown) VH: QSVEESRGGLIKPTDTLTLTCTVSGFSLSNYGVSWVRQAPGNGLEYIGFIGTIGATLYANWAKSRSTITRNTNLNTVTLKMTSLTAADTATYFCARGIYGDIYVYAFDIWGPGTLVTVSS VL: AAVLTQTPSPVSAAVGGTVTISCQASQSVRDNGDLAWYQQKPGQPPKLLIYDVSALASGVPSRFKGRGSGTQFTLTISDLECDDAATYSCAGGYIAGSDRWVFGGGTEVVVK	2.39	0.11	0.153	1.18	0.32	1.52 OD450	3.83	3.95
